Assay results taken from paper PMC5095074 (2016).

B1: GST-E-cadherin-cytoplasmic domain (cd) [human] / Purified β-catenin [not stated] (parent complex)
chain 1: RAVVKEPLLPPEDDTRDNVYYYDEEGGGEEDQDFDLSQLHRGLDARPEVTRNDVAPTLMSVPRYLPRPANPDEIGNFIDENLKAADTDPTAPPYDSLLVFDYEGSGSEAASLSSLNSSESDKDQDYDYLNEWGNRFKKLADMYGGGEDD
chain 2: MATQADLMELDMAMEPDRKAAVSHWQQQSYLDSGIHSGATTTAPSLSGKGNPEEEDVDTSQVLYEWEQGFSQSFTQEQVADIDGQYAMTRAQRVRAAMFPETLDEGMQIPSTQFDAAHPTNVQRLAEPSQMLKHAVVNLINYQDDAELATRAIPELTKLLNDEDQVVVNKAAVMVHQLSKKEASRHAIMRSPQMVSAIVRTMQNTNDVETARCTAGTLHNLSHHREGLLAIFKSGGIPALVKMLGSPVDSVLFYAITTLHNLLLHQEGAKMAVRLAGGLQKMVALLNKTNVKFLAITTDCLQILAYGNQESKLIILASGGPQALVNIMRTYTYEKLLWTTSRVLKVLSVCSSNKPAIVEAGGMQALGLHLTDPSQRLVQNCLWTLRNLSDAATKQEGMEGLLGTLVQLLGSDDINVVTCAAGILSNLTCNNYKNKMMVCQVGGIEALVRTVLRAGDREDITEPAICALRHLTSRHQEAEMAQNAVRLHYGLPVVVKLLHPPSHWPLIKATVGLIRNLALCPANHAPLREQGAIPRLVQLLVRAHQDTQRRTSMGGTQQQFVEGVRMEEIVEGCTGALHILARDVHNRIVIRGLNTIPLFVQLLYSPIENIQRVAAGVLCELAQDKEAAEAIEAEGATAPLTELLHSRNEGVATYAAAVLFRMSEDKPQDYKKRLSVELTSSLFRTEPMAWNETADLGLDIGAQGEPLGYRQDDPSYRSFHSGGYGQDALGMDPMMEHEMGGHHPGADYPVDGLPDLGHAQDLMDGLPPGDSNQLAWFDTDL

Variants of: B1
Assay: GST pull-down, immunoblot anti-β-catenin, quantified; purified proteins; mean ± SD of three experiments; parent: 1; read off a plot

ratio to parent | Variant
~0.39 | chain 1 T57E
~1.1 | chain 1 T57A
